# Assay results taken from US20230340132A1, “ANTI-ADENOSINE RECEPTOR (A2aR) ANTIBODIES” (NA Biotech Corp, priority 2020, published 2023).
# “Also recorded” adds a separate entry of the source.
# B1: 3F6-9G5: anti-human A2aR monoclonal antibody from mouse hybridoma clone; HCVR SEQ ID NO: 36, LCVR SEQ ID NO: 42 (antibody, V domains shown)
# VH: QVQLQQPGTELVKPGAPVRLSCKASGFAFTSYWMNWVRQRPGRGLEWIGRIDPSDSEAHYHHKFWGKATLTVDKSSSTVYIQLNGLTSEDSAVYYCLRSLYGKGDYWGHGTTLTVSS
# VL: DVLMTQTPLSLSVRLGDQASISCRSSQSLVHRNGNTYLEWYLQRPGQSPKLLIYKVSNRFSGVPDRFSGSGSGTDFTLKISRVEAEDLGVYYCYQGSHVPLTFGSGTKLEIK
# Target: T1, human A2aR on human T cells (PBMC) (Homo sapiens, UniProt P29274)
# T1 construct: host or cells: human PBMC (T cells)
# Assay: primary cell binding by flow cytometry, human PBMC
# Conditions: rabbit Fc format, 2 μg/ml
# Procedure: Human and cynomolgus PBMCs were purchased from Cytologics LLC (San Diego, CA) and iQ Biosciences (Berkeley, CA), respectively. Primary cell binding was determined using anti-human A2aR clone 3F6-9G5 at rabbit Fc format. In brief, 10^6 human and/or cynomolgus PBMCs in 100 μl FACS buffer were incubated with 3F6-9G5 (2 μg/ml) at 4° C. for 60 minutes. Cynomolgus cross-reactive anti-human CD3 (clone SP34, BD), anti-human CD8 (clone RPA-T8, Biolegend) and Zombie Green fixable Viability dye (Biolegend, Cat. 423111) were used according to manufacturer's instruction to define live immune cell subsets. After 3 washes with FACS buffer, cells were stained with PE-conjugated donkey anti-rabbit Fc detection antibody (1:200, Biolegend, Cat. 406421) for 30 minutes at 4° C. After 3 washes with FACS buffer, cells were analyzed on LSRII (Becton Dickinson). Data was analyzed using FlowJo (Becton Dickinson).
# T1 sequence (P29274 whole entry): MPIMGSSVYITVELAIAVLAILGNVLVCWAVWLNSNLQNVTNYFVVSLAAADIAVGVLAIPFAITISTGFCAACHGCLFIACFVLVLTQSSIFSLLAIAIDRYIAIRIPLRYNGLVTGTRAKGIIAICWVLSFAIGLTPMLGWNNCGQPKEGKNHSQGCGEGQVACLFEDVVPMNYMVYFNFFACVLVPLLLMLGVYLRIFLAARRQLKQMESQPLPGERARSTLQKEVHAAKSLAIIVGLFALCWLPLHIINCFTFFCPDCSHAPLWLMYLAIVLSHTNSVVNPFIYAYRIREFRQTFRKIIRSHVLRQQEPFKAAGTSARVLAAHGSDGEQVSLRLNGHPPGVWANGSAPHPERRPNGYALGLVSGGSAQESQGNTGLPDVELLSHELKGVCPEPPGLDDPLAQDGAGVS
molecule,measurement,value
B1,binding to human T cells (CD4+ and CD8+) of PBMC (FIG. 6),bound to a small subset of human T cells; also recorded: binds
